Measurements from US20240270826A1 (NATIONAL RESEARCH COUNCIL OF CANADA, published 2024).
Like-named read-outs stand apart in the source and are kept apart here.

Columns and labels:
[1] = target: T1, Human SARS-CoV-2_Wuhan S (SmT1) (SARS-CoV-2 (Wuhan), UniProt P0DTC2 14-1208); test: SPR, VHH over immobilised S
SARS-CoV spike (S) = SARS-CoV spike (S) (SARS-CoV, UniProt P59594 14-1195); test: SPR, VHH over immobilised S
[2] = target: T1, Human SARS-CoV-2_Wuhan S (SmT1); test: SPR, VHH over immobilised S; remark: listed apart in the source
[3] = target: T2, SARS-CoV-2 S on CHO-S cells (SARS-CoV-2, UniProt P0DTC2 14-1273); test: flow cytometry, CHO-S cells
T2 construct: whole, on cells

[4] = target: Human SARS-CoV-2_Wuhan S (SmT1) (SARS-CoV-2 (Wuhan), UniProt P0DTC2 14-1208); test: flow cytometry SVNA, VHH-Fc vs biotin-S binding to Vero E6 ACE2

B1: NRCoV2-MRed04 VHH (VHH)
VHH: EVQLVESGGGLVQPGRSLRLSCAASGNSFSISTMGWFRQAPGKERELVASIWSDTTTSYADSVKGRFTISTDNTRTKVYLQMSSLNPEDTAVYYCAADRGFVVRGQYDYWGQGTQVTVSS
Kd [1]: 0.863 nM | koff [1]: 0.00131 s⁻¹ | kon [1]: 1.51e+06 M⁻¹ s⁻¹ | Kd (SARS-CoV spike (S)): 300 nM | koff (SARS-CoV spike (S)): 0.097 s⁻¹ | kon (SARS-CoV spike (S)): 323000 M⁻¹ s⁻¹ | Kd [2]: 0.86 nM

B2: NRCoV2-11a VHH-Fc (Fc fusion)
chain: EVQLQQSGGGLVQPGGSLRLSCAASGFTLDSYNIAWFRQAPGKEREWISYISRYYESTYYSDSVKGRFTTSRDGDKKTVSLQMNSLKSEDTAVYYCAARSRDFSSPISATDKYGSWGQGTQVTVSS
notes: bivalent VHH-Fc
Bmax [3]: 12000 | EC50 [3]: 2 nM

B3: NRCoV2-11a VHH-Fc (Fc fusion)
chain: EVQLQQSGGGLVQPGGSLRLSCAASGFTLDSYNIAWFRQAPGKEREWISYISRYYESTYYSDSVKGRFTTSRDGDKKTVSLQMNSLKSEDTAVYYCAARSRDFSSPISATDKYGSWGQGTQVTVSS
notes: bivalent VHH-Fc
IC50 [4]: 9.7 nM | IC99 [4]: 67.6 nM | Imax % [4]: 46%

B4: NRCoV2-05 VHH (VHH)
VHH: EVKLVQSGGGLVQPGGSLRLSCAASGFIFSNYAMNWVRQAPGKGLEWVSGINSGGGDTRYADSVKGRFTVSRDNAKNTLYLQMNSLKPEDTGVYYCSKGPVSSYYGSGYDYRGQGTQVTVSS
Kd [1]: 2.57 nM | koff [1]: 0.00709 s⁻¹ | kon [1]: 2.76e+06 M⁻¹ s⁻¹ | binding result (SARS-CoV spike (S)): no binding | Kd [2]: 2.6 nM

B5: NRCoV2-SR13 VHH (VHH)
VHH: EVQLVESGGGLVTTGGSLRLSCATSGSRFGSKHMAWYRQAPGKQRDLVAAISSGGSTHYGSSVKGRFTISRDNAKSTVYLQMNSLNPEDTAVFYCNMGGWDYRSNTYIPGSRSDYWGQGTQVTVSS
Kd [1]: 3.56 nM | koff [1]: 0.00376 s⁻¹ | kon [1]: 1.06e+06 M⁻¹ s⁻¹ | Kd [2]: 3.6 nM

B6: NRCoV2-20 VHH (VHH)
VHH: EVQLQQSGGGLVQPGGSLRLSCAASGRTFSNYVVGWFRQAPQAPGKDHEFVAVISGSDTETYYADSVKGRFTISRDNAKNTVYLQMNSLKPEDTAVYYCAADRGMSYYYTRATEYYYWGQGTQVTVSS
Kd [1]: 4.39 nM | koff [1]: 0.0116 s⁻¹ | kon [1]: 2.64e+06 M⁻¹ s⁻¹ | Kd [2]: 4.39 nM

B7: NRCoV2-06 VHH (VHH)
VHH: EVQLVQSGGGLVQAGESLRLSCAASVSTFSSYAMGWYRQAPGKQRELVASIGFVGATYYIDSVKGRFTISRDNAKKTAYLQMNDLKPDDTAVYYCNARHYGGSEYWGQGTQVTVSS
Kd [1]: 223 nM | koff [1]: 0.00456 s⁻¹ | kon [1]: 20500 M⁻¹ s⁻¹ | binding result (SARS-CoV spike (S)): no binding | Kd [2]: 223 nM

B8: NRCoV2-11 VHH (VHH)
VHH: EVQLVSSGGGLVQPGGSLRLSCAASGSSLDSYSVSWFRQAPGKEREWISFISRYYSSTYYTDSVKGRFTTSRDGDQKTVHLQMNSLKPEDTAVYYCAARSRDFSSPFSATDTYTSWGQGTQVTVSS
Kd [1]: 0.0177 nM | koff [1]: 1.71e-05 s⁻¹ | kon [1]: 964000 M⁻¹ s⁻¹ | Kd (SARS-CoV spike (S)): 0.014 nM | koff (SARS-CoV spike (S)): 2.7e-05 s⁻¹ | kon (SARS-CoV spike (S)): 1.93e+06 M⁻¹ s⁻¹ | Kd [2]: 0.018 nM

B9: NRCoV2-14 VHH (VHH)
VHH: EVQLVSSGGGLVQAGGSLRLSCEASGTTFSHYAVGWYRQAPGKQREWVASISVFGSTTYGGSVAGRFTISRDNDKNTVDLQMNSLKPEDTAVYYCHAVNADIGGDYWGQGTQVTVSS
Kd [1]: 2.6 nM | koff [1]: 0.00101 s⁻¹ | kon [1]: 389000 M⁻¹ s⁻¹ | binding result (SARS-CoV spike (S)): no binding | Kd [2]: 2.6 nM

B10: NRCoV2-18 VHH (VHH)
VHH: EVQLVESGGGLVQAGGSLRLSCVASGITISGYNMAWWRQTRGKQTERVAFINSGGSTTYSDSVKGRFTISRDNGKNTAYLQMNSLNAEDTADYFCSLHTSHDYWGQGTQVTVSS
Kd [1]: 0.318 nM | koff [1]: 9.39e-05 s⁻¹ | kon [1]: 295000 M⁻¹ s⁻¹ | Kd [2]: 0.32 nM

B11: NRCoV2-15 VHH (VHH)
VHH: EVQLVSSGGGLVEAGGSLRLSCIASGSTSGRNTMGWFRQAPGKQREWVAIVSTSGATNYAGSVKGRFTLSRDNAKNAVYLQMNNLKPEDTAVYYCYAAYGGGGDYWGQGTQVTVSS
Kd [1]: 0.321 nM | koff [1]: 0.000222 s⁻¹ | kon [1]: 691000 M⁻¹ s⁻¹ | binding result (SARS-CoV spike (S)): no binding | Kd [2]: 0.32 nM

B12: NRCoV2-02 VHH (VHH)
VHH: EVQLVESGGGLVQAGGSLRLSCAASGFTFSNYAMNWVRQAPGKGLEWVSGISGRGDDTRYADSVKGRFTISRDNAKNTLFLQMRSLRPEDTGVYRCTKGPDLYYFGSGYSDRGQGTQVTVSS
Kd [1]: 0.624 nM | koff [1]: 0.00127 s⁻¹ | kon [1]: 2.04e+06 M⁻¹ s⁻¹ | binding result (SARS-CoV spike (S)): no binding | Kd [2]: 0.62 nM

B13: NRCoV2-SR02 VHH (VHH)
VHH: EVQLVDSGGGLVQAGGSLRLSCTASEFTLNYYSIGWFRQSPGKEREGVSCIRYSGGGIDYADSVKGRFTISRDNAKNTVYLTMNSLKPEDTAVYYCAADRLYSRACPTAGGRNYWGQGTQVTVSS
Kd [1]: 0.135 nM | koff [1]: 0.000669 s⁻¹ | kon [1]: 4.98e+06 M⁻¹ s⁻¹ | Kd [2]: 0.47 nM

B14: NRCoV2-SR01 VHH (VHH)
VHH: EVQLVQSGGGSVQAGGSLRLSCVASGFTFDNYAIGWFRQAPGKEREGVSCISGNGGVTIYADSVKGRFTISRDNAKNLVYLQMNSLKPEDTAVYYCAATGIRSTWSVYGCSRLAGPYDYWGQGTQVTVSS
Kd [1]: 0.564 nM | koff [1]: 0.000805 s⁻¹ | kon [1]: 1.43e+06 M⁻¹ s⁻¹ | Kd (SARS-CoV spike (S)): 0.154 nM | koff (SARS-CoV spike (S)): 0.000105 s⁻¹ | kon (SARS-CoV spike (S)): 681000 M⁻¹ s⁻¹ | Kd [2]: 0.56 nM

B15: NRCoV2-10 VHH (VHH)
VHH: QLQLQESGGGLVQPGGSLTLSCAASGNTFSRSNMHWYRQAPGAQREWVAAISSRGISTYAYSAKGRFTISRDNAKNTVSLQMNSLKPEDTAVYYCYAADDLGDYWGQGTQVTVSS
Kd [1]: 0.199 nM | koff [1]: 0.000116 s⁻¹ | kon [1]: 581000 M⁻¹ s⁻¹ | binding result (SARS-CoV spike (S)): no binding | Kd [2]: 0.2 nM

B16: NRCoV2-03 VHH (VHH)
VHH: EVQLVSSGGGLVQAGGSLRLSCTASGITFSYYAMGWYRQAPGQPRELVASMSNMDSTIYADSVKGRFTISRDNAKTTIYLQMNNLKPEDTAVYFCNIYGPTYSTRRNEYWGQGTQVTVSS
Kd [1]: 1.56 nM | koff [1]: 0.000181 s⁻¹ | kon [1]: 116000 M⁻¹ s⁻¹ | binding result (SARS-CoV spike (S)): no binding | Kd [2]: 1.56 nM

B17: NRCoV2-04 VHH (VHH)
VHH: AVQLVDSGGGLVQPGGSLRLSCAASGSPFSNVVMAWYRQAPGKQRERVAFISGGGIADYIMSVKGRFTISRDNAKNTVYLQMNSLKPEDTAVYYCWSSYESTWGQGTQVTVSS
Kd [1]: 10.2 nM | koff [1]: 0.0188 s⁻¹ | kon [1]: 1.84e+06 M⁻¹ s⁻¹ | binding result (SARS-CoV spike (S)): no binding | Kd [2]: 10.2 nM

B18: NRCoV2-MRed25 VHH-Fc (Fc fusion)
chain: EVQLVESGGGLVQAGGSLRLSCAASGHTFSRYGMGWFRQAPGKEREFVAAISWRGDSTYYRDSVNGRFTISRDNAKNTVYLGMNSLKPEDTAVYYCAAEMWGTATIVASRYTYWGQGTQVTVSS
notes: bivalent VHH-Fc
Bmax [3]: 4420 | EC50 [3]: 0.8 nM

B19: NRCoV2-S2H4 VHH-Fc (Fc fusion)
chain: QVQLVQSGGGLVQAGGSLRLSCAASGFTFNLYSIAWFRQAPGKEREGVSCINSGDRDSTTYYADSVKGRFTISRDNAKHTAYLQMDSLKPEDTAVYYCALVFGYTSRDYCLTPKRGNYWGQGTQVTVSS
notes: bivalent VHH-Fc
Bmax [3]: 7910 | EC50 [3]: 1 nM

B20: NRCoV2-1a VHH-Fc (Fc fusion)
chain: EVKLVQSGGGSVQPGGSLRLSCAASGSTLDYYAIGWFRQAPGKEREWVSCVSSSDGSTLYADSVKGRFTISRDNAKNTVYLQMNSLKPEDTAVYVCAADYSMRPLWVSRWHRDYEYWGQGTQVTVSS
notes: bivalent VHH-Fc
Bmax [3]: 17200 | EC50 [3]: 1.1 nM

B21: NRCoV2-1d VHH (VHH)
VHH: EVQLVESGGGSVQPGGSLRLSCAASGSTLDYYAIGWFRQAPGKEREWVSSVSSSDGNTLYADSVKGRFTISRDNAKNTVYLQMNSLKAEDTAVYVCAADYSMRPFAVGRWHRDYEYWGQGTQVTVSS
Kd [1]: 0.75 nM | koff [1]: 0.00105 s⁻¹ | kon [1]: 1.39e+06 M⁻¹ s⁻¹ | Kd [2]: 0.75 nM

B22: NRCoV2-1a VHH-Fc (Fc fusion)
chain: EVKLVQSGGGSVQPGGSLRLSCAASGSTLDYYAIGWFRQAPGKEREWVSCVSSSDGSTLYADSVKGRFTISRDNAKNTVYLQMNSLKPEDTAVYVCAADYSMRPLWVSRWHRDYEYWGQGTQVTVSS
notes: bivalent VHH-Fc
IC50 [4]: 9.2 nM | IC99 [4]: 89.4 nM | Imax % [4]: 94%

B23: NRCoV2-07 VHH (VHH)
VHH: QVQLVQSGGGLVQPGGSLRLSCAASGVTLDYYAIGWFRQAPGKEREAVSCISSNGRRNHYVASVRGRFTISRDNAKSTVYLQMNSLKPEDTAVYYCAAVQDVHGDNYYCTSPNEYNVWGQGTQVTVSS
Kd [1]: 0.939 nM | koff [1]: 0.000355 s⁻¹ | kon [1]: 378000 M⁻¹ s⁻¹ | Kd (SARS-CoV spike (S)): 12.2 nM | koff (SARS-CoV spike (S)): 0.00146 s⁻¹ | kon (SARS-CoV spike (S)): 120000 M⁻¹ s⁻¹ | Kd [2]: 0.94 nM

B24: NRCoV2-17 VHH (VHH)
VHH: EVQLQQSGGGLVQTGGSLRLSCAAAGSPFSQLAMSWYRQISGKERAWVASISPTGNRSYSKIAKGRFTISRDNAKNTVTLQMTSLKPEDTAAYICQAANVNGGDYWGQGTQVTVSS
Kd [1]: 0.154 nM | koff [1]: 9.45e-05 s⁻¹ | kon [1]: 614000 M⁻¹ s⁻¹ | binding result (SARS-CoV spike (S)): no binding | Kd [2]: 0.15 nM
